The text below walks through data of patent US20260055368A1 (KIROMIC BIOPHARMA, published 2026).

Assay [1] addresses MSLN isoform 1 (Mesothelin canonical polypeptide) (Homo sapiens (Human)) (UniProt Q13421). Put plainly: flow cytometry on Lenti-X 293T cells transiently expressing MSLN isoform 1 (EGFP-gated). (In general: A flow cytometer gives signals particle by particle.)
The target in assay [2] is Mesothelin isoform 2 (IsoMSLN) (Homo sapiens (Human)) (UniProt Q13421). Put plainly: flow cytometry on Lenti-X 293T cells transiently expressing MSLN isoform 2 (EGFP-gated).
In assay [3] the target is MSLN isoform 1 (Mesothelin canonical polypeptide) (Homo sapiens (Human), UniProt Q13421 37-598). Briefly: flow cytometry on Lenti-X 293T cells transiently expressing MSLN isoform 1. From the text:
(§1) FIGS. 13A-13C show detection of cell surface expression of MSLN isoform 1 and 2 on the tumor cell surface by anti-isoMSLN-specific antibodies. FIG. 13A: the binding curve of different MSLN antibody clones in MSLN isoform 1 or isoform 2 overexpressing 293T cells. MSLN isoform 1 or 2 were transiently expressed in Lenti-X 293T cells; 48 hrs after transfection the cells were harvested and stained for different anti-MSLN antibody or mIgG1 isotype control (with different antibody concentration). MSLN-expressing cells were gated based on EGFP expression. The antibody binding MFI is plot along with the antibody concentration. FIG. 13B: flow cytometry staining of NCI H226 and Hela tumor cell lines with different anti-MSLN antibody clones. FIG. 13C: binding curve of increasing concentration of anti-IsoMSLN antibody clones to NCI H226 cells. The positive percentage of MSLN is plotted versus the antibody concentration.
(§2) Cell transfection and flow cytometry. […] 3 days after transfection, the transfected cells were harvested, counted, and wash once with FACS buffer, and resuspended in 100 μl FACS buffer containing […] human FcR blocker (BD Bioscience) per 0.1 million cells for 10 min, 4° C. […] Samples were acquired with NovoCyte 3000 and analyzed by NovoExpress (ACEA Biosciences Inc).

Assay [4] deals with T1, Mesothelin isoform 2 (IsoMSLN) (Homo sapiens (Human), UniProt Q13421 37-598).
T1 construct: It was transiently expressed in Lenti-X 293T cells and is endogenous on NCI H226 cells; also called MSLN isoform 2; IsoMSLN2
Briefly: flow cytometry on Lenti-X 293T cells transiently expressing MSLN isoform 2 (EGFP-gated).
Description: as §1, §2

Sequence of MSLN isoform 1 (Mesothelin canonical polypeptide) (Q13421 other isoform, or with tags, fused parts or gaps limits assumed): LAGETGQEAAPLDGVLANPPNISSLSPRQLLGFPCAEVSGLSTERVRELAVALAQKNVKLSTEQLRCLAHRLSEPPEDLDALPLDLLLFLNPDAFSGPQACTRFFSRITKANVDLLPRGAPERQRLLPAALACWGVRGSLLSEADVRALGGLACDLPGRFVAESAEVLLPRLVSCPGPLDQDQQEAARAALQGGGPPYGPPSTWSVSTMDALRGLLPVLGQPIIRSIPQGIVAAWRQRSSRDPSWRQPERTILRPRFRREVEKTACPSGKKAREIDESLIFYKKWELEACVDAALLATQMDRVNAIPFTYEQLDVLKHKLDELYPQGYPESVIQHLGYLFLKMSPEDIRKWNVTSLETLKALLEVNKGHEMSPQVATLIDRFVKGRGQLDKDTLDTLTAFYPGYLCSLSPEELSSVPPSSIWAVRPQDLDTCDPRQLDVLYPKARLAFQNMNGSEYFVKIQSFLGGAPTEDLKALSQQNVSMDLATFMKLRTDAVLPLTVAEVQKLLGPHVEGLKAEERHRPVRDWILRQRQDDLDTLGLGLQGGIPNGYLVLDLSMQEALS
Sequence of MSLN isoform 1 (Mesothelin canonical polypeptide) (Homo sapiens (Human)) (Q13421 other isoform, or with tags, fused parts or gaps limits assumed): as above
T1 sequence (Q13421 37-606 limits assumed, form in doubt): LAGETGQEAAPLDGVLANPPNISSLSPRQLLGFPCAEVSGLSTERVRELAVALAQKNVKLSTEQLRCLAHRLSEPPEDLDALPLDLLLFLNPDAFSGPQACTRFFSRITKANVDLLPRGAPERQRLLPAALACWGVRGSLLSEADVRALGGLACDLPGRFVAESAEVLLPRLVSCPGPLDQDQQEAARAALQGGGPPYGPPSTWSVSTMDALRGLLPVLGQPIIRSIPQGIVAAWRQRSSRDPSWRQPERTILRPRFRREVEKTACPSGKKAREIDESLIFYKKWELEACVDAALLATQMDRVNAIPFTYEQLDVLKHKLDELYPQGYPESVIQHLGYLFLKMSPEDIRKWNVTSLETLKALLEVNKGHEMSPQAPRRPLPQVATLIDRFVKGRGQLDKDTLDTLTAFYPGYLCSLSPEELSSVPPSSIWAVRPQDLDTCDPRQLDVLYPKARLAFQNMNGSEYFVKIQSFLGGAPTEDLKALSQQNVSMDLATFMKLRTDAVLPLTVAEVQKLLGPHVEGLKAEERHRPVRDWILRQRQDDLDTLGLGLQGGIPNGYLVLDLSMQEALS
Sequence of Mesothelin isoform 2 (IsoMSLN) (Homo sapiens (Human)) (Q13421 37-606 limits assumed, form in doubt): as above

For Anti-MSLN mAb clone K1 (antibody), the EC50 in assay [1] is 0.152 µg/mL; in assay [2], 0.106 µg/mL.

B1: 1B6 monoclonal antibody (Binding Molecule A) (antibody, V domains shown)
VH: EVKLVESGGGLVKPGGSLKLSCEASGFTFSRYAMSWVRHTPEKRLAWVASITFGGDPYYPDGLKGRFTISRDNTRNILYLQMNSLRSEDTAMYYCVRHESWFAYWGQGTLVTVSA
VL: DVLMTQTPLSLPVSLGEQVSISCRSSQTIVHTDGNIYLEWYLQNPGQSPRLLIYKISNRFSGVPDRFSGSGSGTDFTLKISRVEAEDLGIYYCFQASHVPYTFGGGTKLEIK
notes: also called 1B6 antibody; 1B6 clone
As for B1, the binding result in assay [3] is recorded as “no binding”. The molecule also gave a concentration giving a half-maximal response (EC50) in assay [4] of 0.073 µg/mL.

Usually EC50 stands for the concentration giving half of the maximal effect. Higher therefore signals weaker potency.
